Measured values: IntAct's records for PubMed 16732284

B1: Carboxypeptidase Y-deficient protein 8 (Saccharomyces cerevisiae), P40335 (parent)
chain: MSIFFKPPIDIEILFDNEESRKHVDIATRSSNSSYKSMKESLPVYEDGESLGGIVTLRVRDSKKVDHLGIKVSVIGSIDMLKSHGSGNSSSKKVTSSTSSSSSNGSVDVRKNSVDQFLCQSYDLCPAGELQHSQSFPFLFRDLSKRYESYKGKNVDVAYYVKVTVMRKSTDISKIKRFWVYLYNSVTTAPNTLSANETKATTNDIAGGNYAADNASDNTQTKSTQGEAADVNQVLPISHSNNEPKPVRLDIGIENCLHIEFEYAKSQYSLKEVIVGRIYFLLTRLRIKHMELSLITRESSGLQTSNVMTDSTAIRYEIMDGSSVKGETIPIRLFLSGYDLTPNMSCNYFNVKNYLSLVIIDEDGRRYFKQSEITLYRTR

Variants of: B1
Details: with vps35_human VPS35, Q96QK1

| Variant | effect of a mutation on the interaction |
| --- | --- |
| I318D;M319D | disrupting interaction |
